Patent US20240390506A1 (SUZHOU FUSE BIOSCIENCES, published 2024)

T1: human Fibroblast Activation Protein (FAP), soluble recombinant antigen (human, UniProt Q12884 26-760, biotinylated for BLI and panning (sites not given))
T1 construct: also called biotinylated FAP (Sino Biological); soluble FAP antigen
T1 sequence: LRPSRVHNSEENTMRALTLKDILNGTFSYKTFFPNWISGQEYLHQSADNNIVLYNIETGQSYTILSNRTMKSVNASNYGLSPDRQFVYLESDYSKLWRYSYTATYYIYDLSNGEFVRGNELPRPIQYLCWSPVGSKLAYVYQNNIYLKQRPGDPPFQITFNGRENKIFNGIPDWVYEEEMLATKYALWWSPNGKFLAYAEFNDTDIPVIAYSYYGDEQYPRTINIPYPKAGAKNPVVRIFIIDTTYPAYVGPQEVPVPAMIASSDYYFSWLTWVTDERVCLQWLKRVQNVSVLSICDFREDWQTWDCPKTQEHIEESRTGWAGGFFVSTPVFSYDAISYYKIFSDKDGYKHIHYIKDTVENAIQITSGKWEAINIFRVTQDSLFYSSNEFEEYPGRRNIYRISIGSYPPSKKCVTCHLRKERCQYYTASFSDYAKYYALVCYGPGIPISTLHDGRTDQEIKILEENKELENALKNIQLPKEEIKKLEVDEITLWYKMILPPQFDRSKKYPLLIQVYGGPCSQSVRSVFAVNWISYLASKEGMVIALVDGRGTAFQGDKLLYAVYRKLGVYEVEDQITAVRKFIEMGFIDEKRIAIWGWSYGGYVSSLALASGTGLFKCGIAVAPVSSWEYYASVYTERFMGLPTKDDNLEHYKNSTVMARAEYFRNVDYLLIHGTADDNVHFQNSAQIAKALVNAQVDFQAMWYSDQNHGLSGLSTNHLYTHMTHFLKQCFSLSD


Target: T1, human Fibroblast Activation Protein …
Assay: BLI (Gator), biotinylated FAP on streptavidin sensor

Kd [nM] | koff [s⁻¹] | kon [M⁻¹ s⁻¹] | Binder
6.6 | 0.0028 | 420000 | 872-5 (antibody, V domains shown) VH: EVQLVESGGGLVQPGGSLRLSCAASGFTFRGYIMSWVRQAPGKGLEWVSWISPEGSRTGYADSVKGRFTISRDNSKNTLYLQMNSLRAEDTAVYYCARLQYGTWFDYWGQGTLVTVSS VL: DIQMTQSPSSLSASVGDRVTITCRASQSISSYLNWYQQKPGKAPKLLIYAASSLQSGVPSRFSGSGSGTDFTLTISSLQPEDFATYYCQQATLLLPTFGQGTKVEIKR
15.5 | 0.0056 | 360000 | 872-59 (antibody, V domains shown) VH: EVQLVESGGGLVQPGGSLRLSCAASGFTFTSYAMSWVRQAPGKGLEWVSSIYSWYGTTSYADSVKGRFTISRDNSKNTLYLQMNSLRAEDTAVYYCARTISYSQYAYGYSFDYWGQGTLVTVSS VL: DIQMTQSPSSLSASVGDRVTITCRASQSISSYLNWYQQKPGKAPKLLIYAASSLQSGVPSRFSGSGSGTDFTLTISSLQPEDFATYYCQQAFTSPRTFGQGTKVEIKR
< 1 | – | 110000 | 872-70 (antibody, V domains shown) VH: EVQLVESGGGLVQPGGSLRLSCAASGFTFSRYSMSWVRQAPGKGLEWVSYITSTDGTTDYADSVKGRFTISRDNSKNTLYLQMNSLRAEDTAVYYCARSQYGRYYSPDYYFDYWGQGTLVTVSS VL: DIQMTQSPSSLSASVGDRVTITCRASQSISSYLNWYQQKPGKAPKLLIYAASSLQSGVPSRFSGSGSGTDFTLTISSLQPEDFATYYCQQSRTSPYTFGQGTKVEIKR
